Reference: article PMC5766566, “Characterization of human small heat shock protein HSPB1 α-crystallin domain localized mutants associated with hereditary motor neuron diseases” (Scientific Reports, 2018)
Changes are numbered by the printed parent chain. Names and notes keep the numbering of the source. Blank lines part the entries; values can stand above or below the binder they belong to.

Tests used:
Conditions in all cases: both partners purified
human HSPB1 S135F mutant [1] = target: T1, human HSPB1 S135F mutant (human, UniProt P04792 1-205, S135F); experiment: cross-linking; disulfide cross-linking of mixtures: 50 μM of each protein in 50 mM sodium phosphate pH 7.5, 100 mM NaCl, 5 mM DTT overnight at 37 °C, then dialysis without DTT at 20 °C for 24 h; non-reducing SDS-PAGE
T1 construct: HSPB1 (HSP27), human, with the autosomal dominant Charcot-Marie-Tooth mutation S135F; Disease mutation found in patients; Probably the whole protein; SUMO carrier probably removed (subtractive IMAC); The abstract once prints R135F for this mutant; source: recombinant (pET23b or pETHSUK construct), expressed as described earlier; purified (ammonium sulfate fractionation, anion-exchange, SEC; or …)
T1 sequence (P04792 whole entry S135F): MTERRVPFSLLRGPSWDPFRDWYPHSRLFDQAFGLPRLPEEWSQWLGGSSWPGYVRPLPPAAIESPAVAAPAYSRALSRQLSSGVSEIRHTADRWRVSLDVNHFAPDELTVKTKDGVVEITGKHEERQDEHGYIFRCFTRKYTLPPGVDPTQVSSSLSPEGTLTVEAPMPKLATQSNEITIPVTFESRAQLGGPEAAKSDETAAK

[2] = target: T2, human small heat shock protein HSPB1, wild type (human, UniProt P04792 1-205); experiment: as above
T2 construct: HSPB1 (HSP27), human; six Trp); Two constructs and two purification routes were used and are said to give indistinguishable proteins; Polydisperse oligomer, on average 23 subunits by SEC-SAXS; also called HSP27; WT HSPB1; source: recombinant (pET23b or pETHSUK construct), expressed as described earlier; purified (ammonium sulfate fractionation, anion-exchange, SEC; or subtractive IMAC, …
T2 sequence (P04792 whole entry): as the sequence (P04792 whole entry S135F) above, with F135S counted along it

human HSPB1 R127W mutant [3] = target: T3, human HSPB1 R127W mutant (human, UniProt P04792 1-205, R127W); experiment: as above
T3 construct: HSPB1 (HSP27), human, with the autosomal dominant Charcot-Marie-Tooth mutation R127W; Disease mutation found in patients; Probably the whole protein; SUMO carrier probably removed (subtractive IMAC); source: recombinant (pET23b or pETHSUK construct), expressed as described earlier
T3 sequence (P04792 whole entry R127W): as the sequence (P04792 whole entry S135F) above, with R127W, F135S counted along it

[4] = target: T2, human small heat shock protein HSPB1, …; experiment: SEC; equimolar mixture, 30 μM per monomer of each sHSP in buffer S, preincubated at 42 °C for 1 hr, then Superdex 200 HR
human HSPB1 S135F mutant [5] = target: T1, human HSPB1 S135F mutant; experiment: SEC; equimolar mixture, 30 μM per monomer of each sHSP in buffer S, preincubated at 4 °C for 1 hr, then Superdex 200 HR
human HSPB1 R127W mutant [6] = target: T3, human HSPB1 R127W mutant; experiment: as above

- binding result (human HSPB1 S135F mutant [1]): binds
- binding result [2]: binds
- binding result (human HSPB1 R127W mutant [3]): binds
B1: human HSPB6 C46S/E116C double mutant (natural protein, UniProt O14558 1-160, looked up)
chain: MEIPVPVQPSWLRRASAPLPGLSAPGRLFDQRFGEGLLEAELAALSPTTLAPYYLRAPSVALPVAQVPTDPGHFSVLLDVKHFSPEEIAVKVVGEHVEVHARHEERPDEHGFVARCFHRRYRLPPGVDPAAVTSALSPEGVLSIQAAPASAQAPPPAAAK
notes: HSPB6 (HSP20), human, double mutant C46S/E116C made for disulfide cross-linking

- binding result [4]: binds
- binding result (human HSPB1 S135F mutant [5]): binds
- binding result (human HSPB1 R127W mutant [6]): binds
B2: human HSPB6, wild type (natural protein, UniProt O14558 1-160, looked up)
chain: B1 chain with S46C, C116E
notes: HSPB6 (HSP20), human small heat shock protein; also called HSP20; WT HSPB6
